The test deals with Histidine-tagged human TEAD4 (amino acids 217–434) (human, UniProt Q15561 217-434). The test is described as follows: native gel or EMSA; TEAD4 incubated with increasing concentrations of VGLL3 peptide before labelled YAP was added; 10 min at room temperature; 10% native gel at 100 V; only labelled YAP is seen. The note with it: both partners purified.

We go through 1 molecule from publication PMC6633393 (Journal of cell science, 2019).

Chain of Histidine-tagged human TEAD4 (amino acids 217–434) (Q15561 217-434): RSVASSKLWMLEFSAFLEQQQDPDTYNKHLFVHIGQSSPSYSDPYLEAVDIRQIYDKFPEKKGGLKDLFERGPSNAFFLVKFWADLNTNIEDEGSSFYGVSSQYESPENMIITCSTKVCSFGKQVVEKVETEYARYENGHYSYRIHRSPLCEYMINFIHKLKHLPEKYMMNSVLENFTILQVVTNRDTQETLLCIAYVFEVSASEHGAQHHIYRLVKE

As to SRCVLFTYFQGDIGSVVDEHFSRALGQ (peptide, UniProt A8MV65 86-112, looked up) [Unlabelled human VGLL3 (amino acids 86–112) peptide], the binding result is on record as “binds”.
